What was measured:
[1] = pH stability, 3 hours at 25° C., residual activity by PMS-DCIP assay; format: physicochemical; conditions: relative to no incubation at pH 8.0
Experimental: Enzymes A, A′, A″ and B were incubated in buffers of various pH-values for 3 hours at 25° C. and the residual activities were assayed and expressed as relative values against that obtained by no incubation at pH 8.
Table 3 indicates the results of pH-stabilities of the enzymes. The enzyme (about 0.01 mg/ml) was incubated with 50 mM buffer containing 5% sucrose, 0.2 M NaCl, and 5 mM CaCl2 at 25° C. for 3 hours and assayed by PMS-DCIP spectrophotometric method. The buffers were Na-acetate, pH4 and 5, Tris-malate-NaOH, pH 6, 7 and 8, glycine-NaOH, pH 9 and 10. The values in the table are expressed as relative activity against that obtained by no incubation at pH 8.0.

[2] = Oxidation product of AADH clones by resting cell reaction followed by TLC analysis; format: cell-based, P. putida
Excerpt: Enzyme A gene was originally cloned as a cosmid clone of p24D4 which has about 25 kb insert in EcoRI site of pVK100. Then, it was further subcloned to use as an Enzyme A gene cassette. The 2.7 kb EcoRV fragment which includes ORF of Enzyme A gene with about 500 bp of non-coding regions at the both ends was excised from 3.4 kb NruI fragment, which was isolated from p24D4 in M13 mp18, and was ligated to HindIII site of pUC18 with HindIII linker ([…]). The resulting plasmid was designated pSSA202. Enzyme A gene cassette (2.7 kb HindIII fragment) was then inserted at HindIII site of pVK102 to produce pSSA102R. The plasmid pSSA102R was introduced into nalidixic acid resistant P. putida [ATCC 21812] by a conjugal mating method as described in Example 1-(1). The transconjugant of P. putida carrying pSSA102R was selected on MB agar medium containing 50 μg/ml nalidixic acid and 10 μg/ml tetracycline (MNT agar medium) and subjected to a mini-resting cell reaction. […] The reaction mixture was assayed with TLC and 2KGA was identified as the product, while no 2KGA was observed by the same resting cell reaction with the host, nalidixic acid resistant P. putida [ATCC 21812].

[3] = Thermal stability, 5 minutes, residual activity by PMS-DCIP assay; format: physicochemical
Experimental: Table 4 indicates the results of thermal-stabilities of the enzymes. The enzyme (about 0.05 mg/ml) in 25 mM HEPES buffer, pH 7.5, containing 5% sucrose, 0.2 M NaCl, and 5 mM CaCl2 was incubated at temperature indicated in the table (4-60° C.) for 5 minutes, cooled in ice bath and assayed by PMS-DCIP spectrophotometric method. Remaining activity was expressed as relative activity against that obtained by 4° C. incubation.

[4] = Optimal pH, PMS-DCIP assay in buffers of various pH; format: biochemical
Experimental: The Enzymes A″ and B have a relatively wide pH range toward a lower pH, compared with the Enzymes A and A′.
The enzyme activity was assayed by the PMS-DCIP spectrophotometric assay using various pH buffers. The buffers were 50 mM Tris-malate-NaOH, pH 6.0, 6.5, 7.0, 7.5, 8.0 and 8.5; 50 mM glycine-NaOH, pH 9.0 and 9.5. The extinction coefficients of DCIP at pH 6.0, 6.5, 7.0, 7.5, 8.0, 8.5, 9.0 and 9.5 were taken as 10.8, 13.2, 14.5, 14.9, 15.0, 15.1, 15.1 and 15.1, respectively. […] The Enzymes A″ and B had relatively wide pH range toward lower pH, compared with the Enzymes A and A′.

[5] = Products of enzyme reactions with purified enzymes, identified by TLC and/or HPLC; format: biochemical
Experimental: Products formed from a substrate in the reaction with Enzyme A, Enzyme A′, Enzyme A″ or Enzyme B were analyzed by thin layer chromatography (TLC) and/or high performance liquid chromatography (HPLC) with authentic compounds. […] Similarly to the reactivity for L-sorbosone, D-glucosone can be converted to 2KD by all of above mentioned AADHs. A group enzymes can produce 2KD from D-fructose whose possible direct product is D-glucosone. […]
Enzyme reactions with purified Enzyme A or Enzyme B and various substrates were performed as described in Example 11.

[6] = 4° C. for 5 minutes (reference)
[7] = 20° C. for 5 minutes, relative to 4° C. incubation
[8] = 30° C. for 5 minutes, relative to 4° C. incubation
[9] = 40° C. for 5 minutes, relative to 4° C. incubation
[10] = 50° C. for 5 minutes, relative to 4° C. incubation
[11] = 60° C. for 5 minutes, relative to 4° C. incubation

B1: Enzyme A′: recombinant AADH of G. oxydans DSM No. 4025, amino acid sequence SEQ ID NO 6, plasmid p1E2 (protein)
chain: MKTSSLLVASVAALASYSSFALAQVTPVTDELLANPPAGEWISYGQNQENYRHSPLTQITTENVGQLQLVWARGMQPGKVQVTPLIHDGVMYLANPGDVIQAIDAKTGDLIWEHRRQLPNIATLNSFGEPTRGMALYGTNVYFVSWDNHLVALDTATGQVTFDVDRGQGEDMVSNSSGPIVANGVIVAGSTCQYSPFGCFVSGHDSATGEELWRNYFIPRAGEEGDETWGNDYEARWMTGVWGQITYDPVGGLVHYGSSAVGPASETQRGTTGGTMYGTNTRFAVRPETGEIVWRHQTLPRDNWDQECTFEMMVANVDVQPAADMDGVRSINPNAATGERRVLTGVPCKTGTMWQFDAETGEFLWARDTSYENIIESIDENGIVTVDESKVLTELDTPYDVCPLLLGGRDWPSAALNPDTGIYFIPLNNTCMDIEAVDQEFSSLDVYNQSLTAKMAPGKELVGRIDAIDISTGRTLWTAEREASNYAPVLSTAGGVLFNGGTDRYFRALSQETGETLWQTRLATVASGQAVSYEIDGVQYIAIGGGGTTYGSFHNRPLAEPVDSTAIGNAMYVFALPQQ
modifications: Gluconobacter oxydans; SIGNAL (1)..(23)
[1]; incubated at pH 4.0, 3 hours
  Relative activity (pH stability): 0.0%
[1]; incubated at pH 5.0, 3 hours
  Relative activity (pH stability): 10.0%
[1]; incubated at pH 6.0, 3 hours
  Relative activity (pH stability): 82.7%
[1]; incubated at pH 7.0, 3 hours
  Relative activity (pH stability): 96.9%
[1]; incubated at pH 8.0, 3 hours
  Relative activity (pH stability): 100.0%
[1]; incubated at pH 9.0, 3 hours
  Relative activity (pH stability): 97.3%
[1]; incubated at pH 10.0, 3 hours
  Relative activity (pH stability): 85.4%
[1]; incubated at pH 11.0, 3 hours
  Relative activity (pH stability): 61.3%
[2]
  Oxidation product of D-sorbitol: mainly D-glucose
  Oxidation product of L-sorbose: *1Oxidation product of L-sorbose by Enzymes A, A′, A″, and [A and B] was 2KGA.
  Oxidation product of L-sorbosone: *4Oxidation product of L-sorbosone by Enzymes A, A′, A″, B, and [A and B] was 2KGA.
[3]; [6]
  Relative activity (thermal stability): 100.0%
[3]; [7]
  Relative activity (thermal stability): 100.8%
[3]; [8]
  Relative activity (thermal stability): 103.6%
[3]; [9]
  Relative activity (thermal stability): 78.9%
[3]; [10]
  Relative activity (thermal stability): 0.6%
[3]; [11]
  Relative activity (thermal stability): 0.0%
[4]; assay pH 6.0, pH 8.0 = 100
  Relative activity (optimal pH): 2.1%
[4]; assay pH 6.5, pH 8.0 = 100
  Relative activity (optimal pH): 9.3%
[4]; assay pH 7.0, pH 8.0 = 100
  Relative activity (optimal pH): 22.5%
[4]; assay pH 7.5, pH 8.0 = 100
  Relative activity (optimal pH): 46.8%
[4]; assay pH 8.0
  Relative activity (optimal pH): 100.0%
[4]; assay pH 8.5, pH 8.0 = 100
  Relative activity (optimal pH): 142.7%
[4]; assay pH 9.0, pH 8.0 = 100
  Relative activity (optimal pH): 2.1%
[4]; assay pH 9.5, pH 8.0 = 100
  Relative activity (optimal pH): 1.8%
[5]; substrate D-Fructose
  Product: 2-keto-D-gluconic acid
[5]; substrate D-Mannitol
  Product: D-mannose
[5]; substrate D-Sorbitol
  Product: D-glucose with L-gulose
[5]; substrate L-Sorbose
  Product: L-sorbosone with 2KGA
[5]; substrate L-Sorbosone
  Product: 2KGA

B2: Enzyme A: recombinant AADH of G. oxydans DSM No. 4025, amino acid sequence SEQ ID NO 5, plasmid p24D4/pSSA102R (protein)
chain: MKPTSLLWASAGALALLAAPAFAQVTPVTDELLANPPAGEWISYGQNQENYRHSPLTQITTENVGQLQLVWARGMQPGKVQVTPLIHDGVMYLANPGDVIQAIDAKTGDLIWEHRRQLPNIATLNSFGEPTRGMALYGTNVYFVSWDNHLVALDTATGQVTFDVDRGQGEDMVSNSSGPIVANGVIVAGSTCQYSPFGCFVSGHDSATGEELWRNYFIPRAGEEGDETWGNDYEARWMTGAWGQITYDPVTNLVHYGSTAVGPASETQRGTPGGTLYGTNTRFAVRPDTGEIVWRHQTLPRDNWDQECTFEMMVTNVDVQPSTEMEGLQSINPNAATGERRVLTGVPCKTGTMWQFDAETGEFLWARDTNYQNMIESIDENGIVTVNEDAILKELDVEYDVCPTFLGGRDWPSAALNPDSGIYFIPLNNVCYDMMAVDQEFTSMDVYNTSNVTKLPPGKDMIGRIDAIDISTGRTLWSVERAAANYSPVLSTGGGVLFNGGTDRYFRALSQETGETLWQTRLATVASGQAISYEVDGMQYVAIAGGGVSYGSGLNSALAGERVDSTAIGNAVYVFALPQ
modifications: Gluconobacter oxydans; SIGNAL (1)..(23)
[1]; incubated at pH 4.0, 3 hours
  Relative activity (pH stability): 5.4%
[1]; incubated at pH 5.0, 3 hours
  Relative activity (pH stability): 32.0%
[1]; incubated at pH 6.0, 3 hours
  Relative activity (pH stability): 74.7%
[1]; incubated at pH 7.0, 3 hours
  Relative activity (pH stability): 76.9%
[1]; incubated at pH 8.0, 3 hours
  Relative activity (pH stability): 80.1%
[1]; incubated at pH 9.0, 3 hours
  Relative activity (pH stability): 60.1%
[1]; incubated at pH 10.0, 3 hours
  Relative activity (pH stability): 53.2%
[1]; incubated at pH 11.0, 3 hours
  Relative activity (pH stability): 31.0%
[2]
  Oxidation product of D-sorbitol: mainly D-glucose
  Oxidation product of L-sorbose: *1Oxidation product of L-sorbose by Enzymes A, A′, A″, and [A and B] was 2KGA.
  Oxidation product of L-sorbosone: *4Oxidation product of L-sorbosone by Enzymes A, A′, A″, B, and [A and B] was 2KGA.
[3]; [6]
  Relative activity (thermal stability): 100.0%
[3]; [7]
  Relative activity (thermal stability): 91.5%
[3]; [8]
  Relative activity (thermal stability): 78.0%
[3]; 40° C. for 5 min
  Residual activity: 20%
[3]; [9]
  Relative activity (thermal stability): 19.9%
[3]; [10]
  Relative activity (thermal stability): 4.1%
[3]; [11]
  Relative activity (thermal stability): 2.9%
[4]; assay pH 6.0, pH 8.0 = 100
  Relative activity (optimal pH): 6.5%
[4]; assay pH 6.5, pH 8.0 = 100
  Relative activity (optimal pH): 13.0%
[4]; assay pH 7.0, pH 8.0 = 100
  Relative activity (optimal pH): 33.1%
[4]; assay pH 7.5, pH 8.0 = 100
  Relative activity (optimal pH): 57.7%
[4]; assay pH 8.0
  Relative activity (optimal pH): 100.0%
[4]; assay pH 8.5, pH 8.0 = 100
  Relative activity (optimal pH): 113.2%
[4]; assay pH 9.0, pH 8.0 = 100
  Relative activity (optimal pH): 50.0%
[4]; assay pH 9.5, pH 8.0 = 100
  Relative activity (optimal pH): 19.6%
[5]; substrate D-Mannitol
  Product: D-Mannose
[5]; substrate D-Sorbitol
  Product: D-glucose with L-gulose
[5]; substrate L-Sorbose
  Product: L-sorbosone with 2KGA
[5]; substrate L-Sorbosone
  Product: 2KGA
